Test results as given in the RNAGym collection of RNA variant scans (doi:10.1073/pnas.2313332121).

B1: TPR t1 (parent)
chain: GACCAAUCUGCCCUCAGAGCUCGAGAACAUCUUCGGAUGCAGAGGAGGCAGGCUUCGGUGGCGCGAUAGCGCCAACGUCCUCAACCUCCAAUGCAUCCCACCACAUGAUGAUGCCUGAAGAGCCUUGGUUUUUUG

Variants of: B1
Experiment: polymerase ribozyme fitness, log enrichment relative to wild type (log ratio); higher = more active; in vitro selection for triplet polymerase activity
Summary of the method: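 Fitness is a logarithmic measure of how a genotype enriched relative to the wild type, with replicate averages weighted by inverse variance. The logarithm uses base 2, and enrichment came from Illumina sequencing of input and output libraries. Those libraries were PCR-built, transcribed mutants of each subunit of a heterodimeric triplet polymerase ribozyme, passed through one triplicate in vitro selection round that included frozen incubation at −7 °C, gel excision of extended constructs and streptavidin-bead capture. Genotypes were kept only if they had ≥10 input reads and ≥1 read per output.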

Row | Variant | polymerase ribozyme fitness (log ratio)
1 | GCCUAAUCUGCCCUCAGAGCUCGAGAACAUCUUCGUAUGCAGAGGAGGCAGGCUUCGGUGGCGCGAUAGCGCAAACGUCCUCAACCUCCAAUGCAUCCCACCAUAUGAUGAUGCCUGAAGAGCCUUGGUUUUUUG [A2C C4U G36U C73A C104U] | -2.65
2 | GCCCAAUCUGCCCUCUGAGCUCGAGAACAUCUUCGGAUGCAGAGGAGGCAGGCUUCGGUGGCGCGAUAGCGACAACGUCCUCAACCUCCAAUGCAUCCCACCACAUGAUGAUGCCUGAAGAGCCAUGGUUUUUUG [A2C A16U C72A U125A] | -3.54
3 | GCCCAAUCUGCCCUCAGAGCUCGAGAACAUCUUCGGUUGCAGAGGAGGCAGGCUUCGGUGGCGCGAUAGCGCCAACGGCCUCAACCUCCAAUGCAUCCCACCACAUGAUGAUGCCUGAAUAGCCUUGGUUUUUUG [A2C A37U U78G G120U] | -1.6
4 | GCCCGACCUGCCAUCAGAGCUCGAGAACAUCUUCGGAUGCAGAGGAGUCUGGCUUCGGUGGCGCGAUAGCGCCAACGUCCUCAACCUCCAACGCAUUCCACCACAUGAUGAUGCCUGAAGAGUCUUGGUUUUUUG [A2C A5G U7C C13A G48U A50U U92C C97U C123U] | -4.24
5 | GCCCAAUCUGCCCUCAGAGCUCGAGAACAUCUUCGGAUGCAGAGGAGGCAGGCUUCGGUGGCGCGAUAGCGCCAACGUCCUCAACCUCCAAUGCAUCCCCCCACAUGAAGAUGCCUGAAGAGCCUUGGUUUUUUG [A2C A100C U109A] | -6.4
6 | GCCCAAUCUGUCCUUAGAGCUCGAGAACAUCUUCGGAUGCAGAGGAGGCAGGCUGCGGUGGCUCGAUAGCGCCAACGUCCUCAACCUCCGAUGCAUCCCACCACAUGAUGAUGCCUGAAGGGCCUUGGUUUUUUG [A2C C11U C15U U55G G63U A90G A121G] | -1.56
7 | GCCCAAUCUGCCGUCUGAGCUCGAGAACAUCUUCGGAUGCAGAGGAGGCAGGCUUCGGUGGCGCGAUAGCGCCAACGUCCUCAACCUCCAAUGCAUCCCACCACAUGAUGAUGCCUGAAGAGCCUUGGUUUUUUG [A2C C13G A16U] | -4.01
8 | GCCCAGUAUGCCCUCAGAGCUCGAGAACAUCUUCGGAUGCAGAGGAGGCAGGCUUCGGUGACGCGAUAGCGCCAACGUCCUCAACCUCCAAUGCAUCCCAGCACAUGAUGAUGCCUGAAGAGCCUUGGUUCUUUG [A2C A6G C8A G61A C101G U131C] | -1.87
9 | GCCCAAUCUGCCCUCAGAGCUCGAGAACAUCUUCGGUUGCAGAGGAGGCAGGCUUCGGUGGCGCGAUAGCGCCAACGUCCUCAACCUCCAAUGCAUCCCACCACAUGAUGAUGCCUGAAGAGUCUUGGUUUUUUG [A2C A37U C123U] | -0.77
10 | GCCCAAUCUGCCCUCGGAGCUCGAGAACAUCUUCGGAUGCAGAGGAGGAAGGCUGCGGUGGCGCGAUAGCGCCAACGUCCUCAACCUCCAAUGCAUCCCACCACAUGAUGAUGCCUGAACAGCUUUGGUUUUUUG [A2C A16G C49A U55G G120C C124U] | -1.14
11 | GCCCAAUCUGCCCUCAGAGCUCGAGAACAUCUUCGGUUGCAGAGGAGGCAGGCUUCGGUGGCGCGAUAGCGCUAACGUCCUCAACCUCCAAUACAUCCCACCACAUGAUGAUGCCUGAACAGCCUUGGUUUUUUG [A2C A37U C73U G93A G120C] | -2.44
12 | GCCAAAUCUGCCCUCAGAGCUCGAGAACAUCUUCGGAUGCAGAAGAGGUAGGCUUCGGUGGCACGAUAGCGCCAACGUCCUCAACCUCCAAUGCAUCCCACCACAUGAUGAUGCCUGAAGAGCCUUGGUUUUUUG [A2C C4A G44A C49U G63A] | -3.51
13 | GCCAAAUCUGCCCUCAGAGCUCGAGAACAUCUUCGGAUGCAGAGGAGGCAGGCUUCGGUGGCGCGAUAGCGCCAACGUCCUCAACCUCCAAUGCAUCCCACCACAUGGUGAUGCCUGAAGAGCCUUGGUUUUUUG [A2C C4A A108G] | -3.25
14 | GCCCAAUCUGCCCUCAGAGCUCGAGAACAUCUUCGGAUGCAGAGGAGGCAGGCUUCGGUGGCGCGAUAGCGCCAACGUCCUCAGCCUCCAAUGCAUCCUACCACAUGAUGAUGCCUGAAGAGCCUUGGUUUUUUG [A2C A84G C99U] | -6.59
15 | GCCCAAUCUGCUCUCAGAGCUCGAGAACAUCUUCGGAUGCAUAGGAGGCAGGCUUCGGUGGCGCGAUAGCUCCAACGUCCUCAUCCUCCAAUGAAUCCCACCACAUGAUGAUGCCUGAAGAGCCUUGGAUUUUUG [A2C C12U G42U G71U A84U C94A U129A] | -4.83
16 | GCCCAAUCUGCCCUCAGAGCUCGAGAACAUCUUCGGAUGCAGAGGAGGCUGGCUUCGGAGGCGCGAUAGCGCCAACGUCCUCAACCUCCAAUGCAUCCCACCACAUGAUGCUGCCUGAAGCGCCUUGGUUUUAUC [A2C A50U U59A A111C A121C U133A G135C] | -1.62
17 | GCCCAAUCUGGCGUCAGAGCUCGAGAACAUCUUCGGAUGCAUAGGAGGCAGGCUUCGGUGGCGCGAUAGCGCCAGCGUCCACAACCUCCAAUGCAUCCCACCACAUGAUGAUGCCUGAAGAGCCUUGGUUUUUUG [A2C C11G C13G G42U A75G U81A] | -4.31
18 | GCUCAAUCUGCCCUCAGAGCUCGAGAACAUCUUCGGAUGCAGAGGAGGCAGGCUUCGGCGGCGCGAUAGCGCCAACGUCCUCAACCUCCAAUGCAUCCCACCAAAUGAUGAUGCCUGAAGAGCCUUGGUUUUUUG [A2C C3U U59C C104A] | -4.21
19 | GCCAAAUCUGCCCUCAGAGCUCGAGAACAUCUUCGGAUGCAGAGGAGGCAGGCUUCGGUGGCGCGAUAGCGCCAACGUCCUCAACCUCCAAUGCAUCCCACCACAUGAUGAUGCCUGAAGAGCCUUGGUUUUUUG [A2C C4A] | -1.3
20 | GCCAAAUCUGCCCUCAGAGCUCGAGAACAUCUUCGGAUGCAGAGGAGGCAGGCUUCGGUGGCGCGAUAGCGCCAACGUCCUCAUCCUCCAAUGCAUCCCACCACAUGAUGAUGCGUGAAGAGCCUUGGUUUUUUG [A2C C4A A84U C115G] | -5.82
21 | GCCUAAUCUGCCUUCAGAGCUCGAGAACAUCUUCGGAUGCAGAGGAGGCAGGCUUCGGUGGCGCGAUAGCGCCAACGUCCUCAACCUCCAAUGCAUCCCACCACAUGAUGAUGUCUGAAGAGCGUUGGUUUUUUG [A2C C4U C13U C114U C124G] | -1.63
